How the values were obtained:
crystal structure = molecular target: the molecule itself; test: crystal structure
Stx2a A-subunit = Stx2a A-subunit (enterohemorrhagic Escherichia coli, UniProt P09385 23-319); test: crystal structure; conditions: both partners purified

B1: Stx2a B-subunit pentamer of the holotoxin (untagged) (natural protein)
chain: ADCAKGKIEFSKYNEDDTFTVKVDGKEYWTSRWNLQPLLQSAQLTGMTVTIKSSTCESGSGFAEVQFNND
B1: binds (crystal structure); binds (Stx2a A-subunit).

— PMC8111002 (Communications Biology, 2021)
